The target of test [1] is T1, SARS-CoV-2 RBD, Omicron strain (B.1.1.529 (BA.1)) (SARS-CoV-2 Omicron strain B.1.1.529 …, UniProt P0DTC2 319-541).
T1 construct: also called Omicron-derived RBD; RBD protein (Omicron type)
Description: ELISA of culture supernatant on Omicron RBD (Fig. 2-1). On the technique in general: An ELISA detects its analyte on a solid surface through an enzyme-linked reagent.

The target in test [2] is T1, SARS-CoV-2 RBD, Omicron strain …. The test is described as follows: ELISA on Omicron RBD, 300 ng/ml antibody (Fig. 2-2).
For test [3] the target is unchanged. The test is described as follows: ELISA on Omicron RBD (supernatant, Fig. 2-1; 300 ng/ml, Fig. 2-2).

Residue numbers refer to the chain shown, from its start. Names may count otherwise.

B1: 28G_1-GN (UT28K S55G) (antibody, V domains shown)
VH: QMQLVQSGPEVKKPGTSVKVSCKASGFTFSISAVQWVRQARGQRLEWIGWIVVGGGNTNYAQKFQERVTITRDMSTSTAYMELSSLRFEDTAVYYCAAPYCGGDCSDGFDIWGQGTMVTVSS
VL: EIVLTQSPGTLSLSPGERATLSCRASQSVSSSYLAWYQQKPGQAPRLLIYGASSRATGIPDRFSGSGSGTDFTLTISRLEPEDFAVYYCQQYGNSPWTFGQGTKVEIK
With B1, in test [1], the binding result is recorded as “no binding”.

B2: UT28K N57E (antibody, V domains shown)
VH: B1 VH with G55S, N57E
VL: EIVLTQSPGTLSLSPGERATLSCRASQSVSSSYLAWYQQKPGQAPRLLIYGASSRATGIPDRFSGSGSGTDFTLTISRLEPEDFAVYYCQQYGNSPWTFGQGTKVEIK
With B2, the binding result in test [2] is listed as “no binding (tested: 300 ng/ml (Fig. 2-2))”.

B3: 28G_6-GR (UT28K S55G, N57R) (antibody, V domains shown)
VH: B1 VH with N57R
VL: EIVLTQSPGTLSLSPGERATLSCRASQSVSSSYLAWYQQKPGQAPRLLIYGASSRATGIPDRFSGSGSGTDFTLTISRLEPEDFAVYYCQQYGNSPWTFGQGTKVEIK
With B3, in test [1], the binding result is “no binding”.

B4: 28G_8-GG (UT28K S55G, N57G) (antibody, V domains shown)
VH: B1 VH with N57G
VL: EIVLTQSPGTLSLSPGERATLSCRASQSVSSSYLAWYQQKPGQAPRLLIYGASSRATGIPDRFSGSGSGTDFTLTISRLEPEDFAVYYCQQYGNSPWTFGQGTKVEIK
Consider B4, for which, in test [1], the binding result is on record as “no binding”.

B5: 28G_5-SG (UT28K N57G) (antibody, V domains shown)
VH: B1 VH with G55S, N57G
VL: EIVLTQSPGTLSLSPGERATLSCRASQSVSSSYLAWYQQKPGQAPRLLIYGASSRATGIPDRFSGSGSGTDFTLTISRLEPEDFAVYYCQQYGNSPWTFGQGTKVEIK
On to B5, for which the binding result in test [3] is “no binding (tested: 300 ng/ml (Fig. 2-2))”.

B6: 28G_3-SR (UT28K N57R) (antibody, V domains shown)
VH: B1 VH with G55S, N57R
VL: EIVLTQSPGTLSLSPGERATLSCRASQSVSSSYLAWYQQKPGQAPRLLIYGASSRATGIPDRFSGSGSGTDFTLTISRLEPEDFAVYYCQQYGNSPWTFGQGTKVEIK
For the molecule B6, the binding result in test [3] is given as “no binding (tested: 300 ng/ml (Fig. 2-2))”.

B7: 4_12-SS/WT (UT28K N57S) (antibody, V domains shown)
VH: B1 VH with G55S, N57S
VL: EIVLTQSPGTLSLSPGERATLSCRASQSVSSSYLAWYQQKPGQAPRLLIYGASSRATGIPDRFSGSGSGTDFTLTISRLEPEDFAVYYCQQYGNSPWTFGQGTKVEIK
B7: the binding result in test [3] is “no binding (tested: 300 ng/ml (Fig. 2-2))”.

The values above are taken from patent JP2024044204A (dated 2024).
